Legend:
[1] = molecular target: T1, human IL-18 (human, UniProt Q14116 37-193); assay: SPR (Biacore)
T1 construct: also called hIL-18

[2] = molecular target: T1, human IL-18; assay: cell-based or functional assay
[3] = molecular target: T2, human IL-12 (human, UniProt P29459 23-219; P29460 23-328); assay: cell-based or functional assay
T2 sequence (looked up) 1: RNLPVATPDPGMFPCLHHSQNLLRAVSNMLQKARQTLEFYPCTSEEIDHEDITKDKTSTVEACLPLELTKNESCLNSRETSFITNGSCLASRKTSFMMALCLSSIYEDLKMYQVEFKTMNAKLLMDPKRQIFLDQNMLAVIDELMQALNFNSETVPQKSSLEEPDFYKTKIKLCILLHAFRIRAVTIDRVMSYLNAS
T2 sequence (looked up) 2: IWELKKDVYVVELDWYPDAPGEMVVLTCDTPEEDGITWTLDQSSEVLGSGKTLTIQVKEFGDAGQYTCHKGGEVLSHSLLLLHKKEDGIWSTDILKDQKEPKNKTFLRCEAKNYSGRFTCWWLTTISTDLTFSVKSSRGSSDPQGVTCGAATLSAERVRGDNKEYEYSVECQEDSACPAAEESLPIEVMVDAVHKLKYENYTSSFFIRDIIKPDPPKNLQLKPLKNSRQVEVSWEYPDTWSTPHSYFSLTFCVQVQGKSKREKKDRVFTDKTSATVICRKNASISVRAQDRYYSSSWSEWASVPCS

B1: DVD1812SL (anti-IL-18/IL-12 DVD-Ig, 18-12-C, short linker) (bispecific antibody, human IgG1, kappa)
heavy: not shown
light: EIVMTQSPATLSVSPGERATLSCRASESISSNLAWYQQKPGQAPRLFIYTASTRATDIPARFSGSGSGTEFTLTISSLQSEDFAVYYCQQYNNWPSITFGQGTRLEIKRTVAAPQSVLTQPPSVSGAPGQRVTISCSGSRSNIGSNTVKWYQQLPGTAPKLLIYYNDQRPSGVPDRFSGSKSGTSASLAITGLQAEDEADYYCQSYDRYTHPALLFGTGTKVTVLGTVAAPSVFIFPPSDEQLKSGTASVVCLLNNFYPREAKVQWKVDNALQSGNSQESVTEQDSKDSTYSLSSTLTLSKADYEKHKVYACEVTHQGLSSPVTKSFNRGEC
notes: also called DVD1812HC-SL / DVD1812LC-SL
Kd [1]: 110 pM
Potency (IC50, M), KG-1 bioassay [2]: 4e-11 M

B2: DVD1812LL (anti-IL-18/IL-12 DVD-Ig, 18-12-C, long linker) (bispecific antibody, human IgG1, kappa)
heavy: not shown
light: EIVMTQSPATLSVSPGERATLSCRASESISSNLAWYQQKPGQAPRLFIYTASTRATDIPARFSGSGSGTEFTLTISSLQSEDFAVYYCQQYNNWPSITFGQGTRLEIKRTVAAPSVFIFPPQSVLTQPPSVSGAPGQRVTISCSGSRSNIGSNTVKWYQQLPGTAPKLLIYYNDQRPSGVPDRFSGSKSGTSASLAITGLQAEDEADYYCQSYDRYTHPALLFGTGTKVTVLGTVAAPSVFIFPPSDEQLKSGTASVVCLLNNFYPREAKVQWKVDNALQSGNSQESVTEQDSKDSTYSLSSTLTLSKADYEKHKVYACEVTHQGLSSPVTKSFNRGEC
Potency (IC50, M), KG-1 bioassay [2]: 7.8e-11 M

B3: ABT-325 (fully human anti-human IL-18 mAb) (antibody, V domains shown)
VH: EVQLVQSGTEVKKPGESLKISCKGSGYTVTSYWIGWVRQMPGKGLEWMGFIYPGDSETRYSPTFQGQVTISADKSFNTAFLQWSSLKASDTAMYYCARVGSGWYPYTFDIWGQGTMVTVSS
VL: not shown
IC50 (M), KG-1 bioassay (IL-18-induced IFN-γ production) [2]: 3e-10 M

B4: ABT-874 (fully human anti-human IL-12p40 mAb) (antibody, V domains shown)
VH: QVQLVESGGGVVQPGRSLRLSCAASGFTFSSYGMHWVRQAPGKGLEWVAFIRYDGSNKYYADSVKGRFTISRDNSKNTLYLQMNSLRAEDTAVYYCKTHGSHDNWGQGTMVTVSS
VL: QSVLTQPPSVSGAPGQRVTISCSGSRSNIGSNTVKWYQQLPGTAPKLLIYYNDQRPSGVPDRFSGSKSGTSASLAITGLQAEDEADYYCQSYDRYTHPALLFGTGTKVTVLG
IC50 (M), IL-12-induced IFN-γ production by PHA blast cells [3]: 5e-12 M

— EP2495257A2 (Abbott Laboratories, dated 2012)
